How the values were obtained:
Experiment in all cases: cell-based or functional assay
[1] = molecular target: HLA-DQ2.5 on IHW09023 cells loaded with gamma 4d gliadin peptide (human; wheat)
[2] = molecular target: HLA-DQ2.5 on IHW09023 cells loaded with gamma 4a gliadin peptide (human; wheat)
[3] = molecular target: HLA-DQ2.5 on IHW09023 cells loaded with BC hordein peptide (human; barley)
[4] = molecular target: HLA-DQ2.5 on IHW09023 cells loaded with gamma 3 gliadin peptide (human; wheat)
[5] = molecular target: HLA-DQ2.5 on IHW09023 cells loaded with gamma 2 gliadin peptide (human; wheat)
[6] = molecular target: HLA-DQ2.5 on IHW09023 cells loaded with gamma 1 gliadin peptide (human; wheat)
[7] = molecular target: HLA-DQ2.5 on IHW09023 cells loaded with omega1/2 gliadin peptide (human; wheat)
[8] = molecular target: HLA-DQ2.5 on IHW09023 cells loaded with 33mer gliadin peptide (human; wheat)

IC50 (ng/mL), γ4d gliadin TCR, 100 µM γ4d gliadin [1]: > 20000 ng/mL
IC50 (ng/mL), γ4a gliadin TCR, 25 µM γ4a gliadin [2]: > 20000 ng/mL
IC50 (ng/mL), BC hordein TCR, 250 nM BC hordein [3]: > 20000 ng/mL
IC50 (ng/mL), γ3 gliadin TCR, 100 µM γ3 gliadin [4]: 3100 ng/mL
IC50 (ng/mL), γ2 gliadin TCR, 250 nM γ2 gliadin [5]: > 20000 ng/mL
IC50 (ng/mL), γ1 gliadin TCR, 250 nM γ1 gliadin [6]: > 20000 ng/mL
IC50 (ng/mL), ω1 gliadin TCR, 25 µM ω1/2 gliadin [7]: 3.12 ng/mL
IC50 (ng/mL), ω2 gliadin TCR, 250 nM ω1/2 gliadin [7]: > 500 ng/mL
IC50 (ng/mL), α1a gliadin TCR, 250 nM 33mer gliadin [8]: 10.6 ng/mL
IC50 (ng/mL), α1b gliadin TCR, 250 nM 33mer gliadin [8]: 46.4 ng/mL
IC50 (ng/mL), α2 gliadin TCR, 250 nM 33mer gliadin [8]: 1.75 ng/mL
B1: DQN034425 (antibody, V domains shown)
VH: QVQLVESGGGVVQPGRSLRLSCAASGFTFSSSYWMCWVRQAPGQGLEWMGCVYGGSDTTYYASWTKGRFTISRDNSKNTLYLQMNSLRAEDTAVYYCARDPLNYYYYGELNLWGQGTLVTVSS
VL: DIQMTQSPSSLSASVGDRVTITCQATENIYSGLAWYQQKPGKAPKLLIYYVSTLASGIPARFSGSGSGTDFTLTISSLEPEDFAVYYCQTYHDISNVTFGQGTKVEIK

Reference: US20240400693A1
